Reference: the supplement of paper PMC9170038

Tested on: MS2 coat protein
Assay: apparent KD of MS2 coat protein; designed switch direction (-1 OFF switch, 1 ON switch): -1; higher = weaker reporter binding
How it was run: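 Each step of the titration lasted 0.8–1.5 h at the lowest concentration and 10–20 min at the highest. The protein, SNAP-549-labelled MS2 coat protein, went from 0.7 or 1.5 nM doubling to 3 µM over RNA switches transcribed on Illumina chips by stalled E. coli RNA polymerase. Normalised cluster fluorescence was curve-fitted, and the per-design median over clusters is given as apparent KD.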

[1] = Eterna round: R95, input ligand: microRNA oligo, concentration not stated
[2] = Eterna round: R95, input ligand: FMN 200 uM
[3] = Eterna round: R95, input ligand: none

Sequence | apparent KD of MS2 coat protein [1] [nM] | apparent KD of MS2 coat protein (input ligand: FMN 200 uM) [nM] | apparent KD of MS2 coat protein (input ligand: none) [nM] | apparent KD of MS2 coat protein [2] [nM] | apparent KD of MS2 coat protein [3] [nM]
CCGGAUAUGCAGGAUAUCGUAACGGAAACGUUACGAGAAGGGUAUACAUGAGGAUCACCCAUGUGUCCUACCGG [Mat - Exclusion 6 - Eli Mod - D86] (puzzle: Exclusion 6) | 21.1 | – | – | – | –
UUCUAUUCAGGAUAUACAUGAGGAUCACCCAUGUGAUUUGCCUCGCGGAAGACUAGACGUAGAAGGGAGUCCCU [Eternabot (L2) Solution 7] (Eterna round: R97, puzzle: Exclusion 3) | – | 91.3 | 111 | – | –
GGAUCAUAUGUCAGGAUAUGCUGGACCUUGGUUCAGCAGAAGGGACAUGAGGAUCACCCAUGUCAUGGAGAUCC [Mat - Exclusion 4 - Eli Mod - D53] (Eterna round: R97, puzzle: Brourd's mod of Exclusion 4) | – | 270 | 415 | – | –
UGACCUUUUGUCAGGAUAUAUAUACGUGUUGGUAGGUAGAAGGGACAUGAGGAUCACCCAUGUGGUUUGAGCUA [Eternabot (L1) Solution 74] (Eterna round: R97, puzzle: Brourd's mod of Exclusion 4) | – | 433 | 155 | – | –
ACUGGUCGAGGAUAUGCAAUCGUGCUUCGGCACGUAAGAUCACAUGAGGAUCACCCAUGUAGAAGGCGACCAGU [E2/3-A2] (Eterna round: R97, puzzle: Exclusion 2) | – | 81.7 | 21.2 | – | –
AUACUCGUUGUGAGGAUAUCGUUUUCUUUACGGAUCGAGAAGGCACAUGAGGAUCACCCAUGUUUGACGUGAAU [JR_BMOE4_Sub093] (puzzle: Brourd's mod of Exclusion 4) | 30.8 | – | – | – | –
CUUAAUUGUGACAUGGGUGACAUGAGGAUCACCCAUGUCACAAGCUUUUUGCUCGUCUUAUAAUUAACCCAUGUCAC [Stov1/13-A3] (Eterna round: R97, puzzle: Sensor, turn-off variant 1) | – | 30 | 33.4 | – | –
GAAAAGAGAGGAUAUACAAGAAGAAAAGAAAAGAAAAGAAAACAUGAGGAUCACCCAUGUAGAAGGCUCAAAAG [Default title] (puzzle: Exclusion 2) | 12.7 | – | – | 18.2 | 20.3
AAAAAACAAGGAUAUACGGAUGAAGAGAGUCUUAAUUUUUGACAUGAGGAUCACCCAUGUAGAAGGUGUUAAAA [JR_Exclusion2_Sub017] (puzzle: Exclusion 2) | 44.4 | – | – | 58.9 | 50.5
UGAUUCGGAGGAUAUACAUGAGGAUCACCCAUGUUACCGGAAGGUAGGAGAGGUCGCCGUAGAAGGCUGCACAU [Eternabot (Original) Solution 7] (Eterna round: R97, puzzle: Exclusion 3) | – | 30.4 | 31.5 | – | –
GUUCUGACAGGAUAUACAUGAGGAUCACCCAUGUGCCCUUAGAGAUGCAAAGCAUCUUGUAGAAGGGUCUGAAC [Omei Ex3 Model Bachelor's Dilema v27] (Eterna round: R97, puzzle: Exclusion 3) | – | 42.1 | 37.6 | – | –
UAUUAGCAAGCGAGAUCCCACAUGAGGAUCACCCAUGUGCUCGUCUUAUAUAAGGUACUGUACGAUAGUACGGUACC [Mat - Sensor, turn-off var - Eli Mod - D28] (Eterna round: R97, puzzle: Sensor, turn-off variant 1) | – | 16.7 | 14.6 | – | –
UAUUAGCAAGCGAGUCUUCACAUGAGGAUCACCCAUGUGCUCGUCUUAUAAGGUACUGUGACGAAAGUCACGGUACC [Eli 91 v32] (Eterna round: R97, puzzle: Sensor, turn-off variant 1) | – | 15.4 | 14.8 | – | –
UGCAUGUGAGGAUAUGUACCUGAGUGCUUUGCGCUCAGGAAACAGAAGGCACAUGAGGAUCACCCAUGUGAAAA [jl-ex4-4.46 ViennaUCT mod] (Eterna round: R97, puzzle: Exclusion 4) | – | 74.1 | 208 | – | –
